Source: patent US20150071855A1 (LONDON HEALTH SCIENCES CENTRE RESEARCHING, published 2015)

Target: T1, recombinant GST-EGFL7 protein (UniProt Q9UHF1 24-273)
T1 construct: Expressed in Sf21 insect cells by baculovirus and purified on glutathione-agarose; The sense primer encodes MRGSQEV, which fits human EGFL7; also called purified EGFL7 protein; recombinant EGFL7; not shown: glutathione-S-transferase (GST) tag from the pDEST20 plasmid (Invitrogen); TEV site/linker region carried over from pENTR/TEV/D-TOPO
T1 sequence (looked up): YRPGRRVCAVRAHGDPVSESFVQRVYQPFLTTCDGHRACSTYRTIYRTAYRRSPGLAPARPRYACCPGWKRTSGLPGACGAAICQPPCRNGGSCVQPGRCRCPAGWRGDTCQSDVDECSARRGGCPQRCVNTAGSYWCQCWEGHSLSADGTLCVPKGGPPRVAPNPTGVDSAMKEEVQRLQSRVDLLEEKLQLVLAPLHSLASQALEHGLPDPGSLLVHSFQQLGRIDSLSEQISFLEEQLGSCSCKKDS
Experiment: SPR imaging (GWC); peptide immobilised on gold spots, purified EGFL7 protein in solution; fit with 'association then dissociation' in GraphPad Prism
Procedure: Peptides were immobilized onto gold spots using standard protocols from the GWC manual. Peptides were then exposed to 500 μL of purified EGFL7 protein. The % change in reflectivity (% R) for each of the spots containing the peptides was collected using V++ Precision Digital Imaging Systems, version 5.0 software and the dissociation constants (KD) were calculated using the ‘association then dissociation’ equation in GraphPad Prism, version 5.0.

Kd: 14.7 nM
B1: GSLLVHSFQQLG (peptide)
peptide: GSLLVHSFQQLG
notes: Immobilised on gold spots for the SPR imaging study; also called LCE71; LCE77
